Earlier results, collected in publication PMC2744096.

Target: MLL (Homo sapiens) (UniProt Q03164)

Substance: CBP KIX (from UniProt Q92793)
- Kd: 3000 nM
